B1: Nbr1(53-129) of the Ape4-Nbr1 fusion protein (domain or fragment)
chain: PTLRSSSVACNTCLKIIRNDSFHCTKCFDFDVCRDCYAKQAFLHPCPKPHFVLVRSSIPSVASLTCSVNSMSVSPQS

Target: Ape4 (full length) of the Ape4-Nbr1 fusion protein (S. pombe)
Assay: cryo-EM structure

Molecule | stoichiometry N | stoichiometry N (Nbr1-ZZ1 molecules per Ape4 dodecamer)
Ape4 (full length) of the Ape4-Nbr1 fusion protein (enzyme) | 12 | –
B1 | – | 12
